Experimental findings from publication PMC6395372, “Myosin Va interacts with the exosomal protein spermine synthase” (Bioscience Reports, 2019) are described below.

Series [1] addresses T1, MyoVa-GTD, wild type (globular tail domain of myosin Va) (human, UniProt Q9Y4I1 1448-1855).
T1 construct: Myosin Va, human, wild-type globular tail domain; limits are printed only for the EE two-hybrid construct (1448-1855 of NP_000250.3); In pET28a-TEV; Limits probably 1448-1855 as for the EE construct; also called TEV-treated MyoVa-GTD; source: E. coli BL21(DE3)∆SlyD pRARE2, purified (HiTrap Chelating, TEV cleavage, Superdex 200)
The series is described as follows: MST; Monolith NT.115, LED power 40%, MST power 60%; 50 nM His-tagged SMS labelled with RED-tris-NTA, serial dilution of MyoVa-GTD; 20 mM HEPES, 150 mM NaCl, 5% glycerol, pH 7.4; triplicate; Hill fit. The settings on record: both partners purified.

Series [2] concerns the molecule itself. In words: SEC; Superdex 75 pg 16/600, 20 mM HEPES, 150 mM NaCl, 5% glycerol, pH 7.4; SMS dimers at Ve ~70 mL.

T1 sequence (Q9Y4I1 1448-1855): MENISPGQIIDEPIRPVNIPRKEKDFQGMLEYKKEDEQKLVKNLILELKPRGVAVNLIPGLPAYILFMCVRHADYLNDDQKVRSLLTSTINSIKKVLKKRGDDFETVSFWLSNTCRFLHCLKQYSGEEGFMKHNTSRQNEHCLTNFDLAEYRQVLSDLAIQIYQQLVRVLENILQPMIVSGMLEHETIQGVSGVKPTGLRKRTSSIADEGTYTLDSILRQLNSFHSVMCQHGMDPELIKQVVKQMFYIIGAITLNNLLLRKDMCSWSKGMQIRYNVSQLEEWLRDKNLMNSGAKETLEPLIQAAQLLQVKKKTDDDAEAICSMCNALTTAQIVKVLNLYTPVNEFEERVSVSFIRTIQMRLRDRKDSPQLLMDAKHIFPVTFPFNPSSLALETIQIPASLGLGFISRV

B1: Spermine synthase (SMS), full length, His-tagged (enzyme, human, UniProt P52788-1 1-366, looked up)
chain: MAAARHSTLDFMLGAKADGETILKGLQSIFQEQGMAESVHTWQDHGYLATYTNKNGSFANLRIYPHGLVLLDLQSYDGDAQGKEEIDSILNKVEERMKELSQDSTGRVKRLPPIVRGGAIDRYWPTADGRLVEYDIDEVVYDEDSPYQNIKILHSKQFGNILILSGDVNLAESDLAYTRAIMGSGKEDYTGKDVLILGGGDGGILCEIVKLKPKMVTMVEIDQMVIDGCKKYMRKTCGDVLDNLKGDCYQVLIEDCIPVLKRYAKEGREFDYVINDLTAVPISTSPEEDSTWEFLRLILDLSMKVLKQDGKYFTQGNCVNLTEALSLYEEQLGRLYCPVEFSKEIVCVPSYLELWVFYTVWKKAKP
modifications: RED-tris-NTA dye label on the His-tag (in the MST assay)
notes: Spermine synthase, human, full-length ORF (NM_004595.4, 253-1353 pb) amplified from a human cDNA library; In pET28a-TEV; the fractions with SMS dimers were used in MST; also called 6xHis-SMS; His-tagged-labeled-SMS; source: E. coli BL21(DE3)∆SlyD pRARE2, purified (HiTrap Chelating, Superdex 75)
Take B1: the affinity in series [1], expressed as Kd, was 3.5 ± 0.5 µM. For the same molecule, the “stoichiometry N” value in series [2] is 2.
